This data set addresses SUMO1 (UniProt P63165).

Chain of SUMO1 (P63165 1-97): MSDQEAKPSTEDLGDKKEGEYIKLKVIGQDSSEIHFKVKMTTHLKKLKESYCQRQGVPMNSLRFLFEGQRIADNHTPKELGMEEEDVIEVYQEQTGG

Consider recombinant DPP9V285A (insect cells), for which the “hydrolysis of GP-AMC by DPP9 V285A” value is “the SUBA mutant DPP9V285A was not activated by SUMO1”.

These data come from patent publication US20150266922.
